According to patent US20040018971A1 (published 2004):

Experiments:
HLA-A*0201 [1] = biological target: T1, HLA-A*0201 (human); test: inhibition of 125I-labelled standard peptide binding to purified HLA, gel filtration; ratio = IC50 of standard / IC50 of test peptide
T1 construct: also called HLA-A2.1

HLA-A*0201 [2] = biological target: T2, HLA-A*0201 (human); test: competitive inhibition of 125I-labeled probe peptide binding to purified HLA-A*0201
T2 construct: also called HLA-A2.1; A2.1

Binder	relative binding ratio (HLA-A*0201 [1])	IC50 (HLA-A*0201 [2])
SLTEILKGGV (also called Her2/neu.144) [HER2/neu peptide, position 144, 10 amino acids]	0.015 ratio to standard peptide	
SLTEILKGGV [Her2/neu.144]		≤ 500 nM
SLTLQGLGI [HER2/neu peptide, position 442, 9 amino acids]	0.0003 ratio to standard peptide	
